Reference: patent publication US20210115098A1

Biological target: activin-like kinase 4 and/or 5 receptor (ALK4/5)
Assay: cell-based or functional assay

Cumulin-like GDF9_H369N (Mutant 7) (from UniProt O60383 30-318) (ligand)
Smad-2/3 responsive luciferase reporter, maximal response at 50 ng/mL relative to Mutant 1: 10 % reduction
